The text below walks through data of PMC2132475.

This experiment addresses α-dystroglycan on embryonic Xenopus myotomal muscle cells (Xenopus (endogenous in embryonic Xenopus muscle cells)). Put plainly: immunostaining of cells or tissue.

In turn, “laminin fragment E3 (domain or fragment)” gave a percent inhibition of mAb IIH6 binding (at 33 nM E3) of 41% and a percent inhibition of mAb IIH6 binding (at 3.3 μM E3) of 94%.
